The record followed here is article PMC4076583 (The Journal of Experimental Medicine, 2014).

The target in assay [1] is recombinant mouse Galectin-9 (mouse, UniProt O08573 1-353). The assay is described as follows: SPR. (In general: In SPR one partner is held on a chip, and binding of the other changes the refractive index at the surface.)
Assay [2] concerns the target recombinant human Galectin-9 (human, UniProt O00182 1-355). The experiment in a line: SPR.

Sequence of recombinant mouse Galectin-9 (O08573 whole entry): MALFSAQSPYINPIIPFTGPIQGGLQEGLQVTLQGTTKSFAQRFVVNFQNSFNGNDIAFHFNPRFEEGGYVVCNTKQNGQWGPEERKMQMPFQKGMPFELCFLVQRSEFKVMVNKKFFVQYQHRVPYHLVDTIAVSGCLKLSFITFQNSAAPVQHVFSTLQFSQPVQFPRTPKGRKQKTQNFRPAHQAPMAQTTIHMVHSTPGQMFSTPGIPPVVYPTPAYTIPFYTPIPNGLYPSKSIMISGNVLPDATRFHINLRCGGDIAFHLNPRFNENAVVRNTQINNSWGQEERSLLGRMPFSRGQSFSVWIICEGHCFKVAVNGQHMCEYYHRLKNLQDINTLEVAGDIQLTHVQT
Sequence of recombinant human Galectin-9 (O00182 whole entry): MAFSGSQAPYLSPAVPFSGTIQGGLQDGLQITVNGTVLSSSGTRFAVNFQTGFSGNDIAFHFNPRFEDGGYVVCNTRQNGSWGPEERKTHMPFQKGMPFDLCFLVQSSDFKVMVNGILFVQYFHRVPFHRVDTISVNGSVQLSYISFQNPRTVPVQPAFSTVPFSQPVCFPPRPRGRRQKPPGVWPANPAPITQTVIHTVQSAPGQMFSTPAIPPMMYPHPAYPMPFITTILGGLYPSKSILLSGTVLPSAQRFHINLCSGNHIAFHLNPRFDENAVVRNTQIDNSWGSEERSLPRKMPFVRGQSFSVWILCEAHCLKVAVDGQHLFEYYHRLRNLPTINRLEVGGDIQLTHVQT

B1: mouse 4-1BB.Fc CRD4 mutant (amino acids 118–187) (Fc fusion, UniProt P20334 118-187, looked up)
chain: TCSLGTFNDQNGTGVCRPWTNCSLDGRSVLKTGTTEKDVVCGPPVVSFSPSTTISVTPEGGPGGHSLQVL
Turning to B1, in assay [1], the Kd (as a rule, the concentration at which binding is half-saturated) was around 18 nM.

B2: mouse 4-1BB.Fc, full-length extracellular 4-1BB (CRD1–4, amino acids 24–187) fused to human IgG1 Fc (Fc fusion, UniProt P20334 24-187, looked up)
chain: VQNSCDNCQPGTFCRKYNPVCKSCPPSTFSSIGGQPNCNICRVCAGYFRFKKFCSSTHNAECECIEGFHCLGPQCTRCEKDCRPGQELTKQGCKTCSLGTFNDQNGTGVCRPWTNCSLDGRSVLKTGTTEKDVVCGPPVVSFSPSTTISVTPEGGPGGHSLQVL
On to B2, for which the Kd in assay [1] is around 11 nM.

B3: human 4-1BB.Fc CRD4 mutant (amino acids 119–186) (Fc fusion, UniProt Q07011 119-186, looked up)
chain: DCCFGTFNDQKRGICRPWTNCSLDGKSVLVNGTKERDVVCGPSPADLSPGASSVTPPAPAREPGHSPQ
As for B3, the Kd in assay [2] was around 35 nM.
